We go through six sequences from the supplement of paper PMC11246515.

This data set is described as follows: total protein half-life in vivo (active degradation + dilution); higher = more stable protein.
[1] abbreviates: E. coli NCM3722 delta-clpP delta-lon delta-hslV, growth: N-lim chemostat, doubling time 6 h.
[2] abbreviates: E. coli NCM3722 delta-clpP, growth: N-lim chemostat, doubling time 6 h.
Where [3] appears, read: E. coli NCM3722 delta-hslV, growth: N-lim chemostat, doubling time 6 h.
The mark [4] stands for this setting: E. coli NCM3722 delta-lon, growth: N-lim chemostat, doubling time 6 h.
Setting [5] is: E. coli NCM3722 delta-smpB, growth: N-lim chemostat, doubling time 6 h.
[6] abbreviates: wild type E. coli NCM3722, growth: C-lim chemostat, doubling time 3 h.
Setting [7] is: wild type E. coli NCM3722, growth: C-lim chemostat, doubling time 6 h.
Where [8] appears, read: wild type E. coli NCM3722, growth: C-lim chemostat, doubling time 12 h.
The mark [9] stands for this setting: wild type E. coli NCM3722, growth: N-lim chemostat, doubling time 6 h.
Setting [10] is: wild type E. coli NCM3722, growth: N-lim chemostat, doubling time 12 h.
Setting [11] is: wild type E. coli NCM3722, growth: P-lim chemostat, doubling time 6 h.
Setting [12] is: wild type E. coli NCM3722, growth: P-lim chemostat, doubling time 12 h.

± gives the standard deviation of the averaged measurements. Where only a bound is given, the exact number is not on record here.

For the sequence “MINYGVVGVGYFGAELARFMNMHDNAKITCVYDPENGENIARELQCINMSSLDALVSSKLVDCVIVATPNYLHKEPVIKAAKNKKHVFCEKPIALSYEDCVDMVKACKEAGVTFMAGHIMNFFNGVQYARKLIKEGVIGEILSCHTKRNGWENKQERLSWKKMKEQSGGHLYHHIHELDCVQHLLGEIPETVTMIGGNLAHSGPGFGNEDDMLFMTLEFPSGKLATLEWGSAFNWPEHYVIINGTKGSIKIDMQETAGSLRIGGQTKHFLVHETQEEDDDRRKGNMTSEMDGAIAYGHPGKKTPLWLASLIRKETLFLHNILCGAKPEEDYIDLLNGEAAMSAIATADAATLSRSQDRKVKISEIIKHTSVM”, the “total protein half-life in vivo” value is, setting by setting: under setting [1], 5.16 h; under setting [2], 4.32 h; under setting [3], 4.31 ± 0.18 h; under setting [4], 4.79 ± 0.4 h; under setting [5], 4.29 ± 0.068 h; under setting [6], 2.75 ± 0.66 h. Also, the “total protein half-life in vivo” value reads like this: under setting [7], 6.07 ± 0.59 h; under setting [8], 11.2 ± 1.7 h; under setting [9], 4.39 ± 0.38 h; under setting [10], 7.48 ± 0.85 h; under setting [11], 6.27 ± 0.24 h; under setting [12], 13.4 ± 1.4 h.
On to “MEIREGHNKFYINDKQGKQIAEIVFVPTGENLAIIEHTDVDESLKGQGIGKQLVAKVVEKMRREKRKIIPLCPFAKHEFDKTREYDDIRS”, for which the “total protein half-life in vivo” value is > 16 h under setting [10] and 12 h under setting [12].
In the case of “MTNYSLRARMMILILAPTVLIGLLLSIFFVVHRYNDLQRQLEDAGASIIEPLAVSTEYGMSLQNRESIGQLISVLHRRHSDIVRAISVYDENNRLFVTSNFHLDPSSMQLGSNVPFPRQLTVTRDGDIMILRTPIISESYSPDESPSSDAKNSQNMLGYIALELDLKSVRLQQYKEIFISSVMMLFCIGIALIFGWRLMRDVTGPIRNMVNTVDRIRRGQLDSRVEGFMLGELDMLKNGINSMAMSLAAYHEEMQHNIDQATSDLRETLEQMEIQNVELDLAKKRAQEAARIKSEFLANMSHELRTPLNGVIGFTRLTLKTELTPTQRDHLNTIERSANNLLAIINDVLDFSKLEAGKLILESIPFPLRSTLDEVVTLLAHSSHDKGLELTLNIKSDVPDNVIGDPLRLQQIITNLVGNAIKFTENGNIDILVEKRALSNTKVQIEVQIRDTGIGIPERDQSRLFQAFRQADASISRRHGGTGLGLVITQKLVNEMGGDISFHSQPNRGSTFWFHINLDLNPNIIIEGPSTQCLAGKRLAYVEPNSAAAQCTLDILSETPLEVVYSPTFSALPPAHYDMMLLGIAVTFREPLTMQHERLAKAVSMTDFLMLALPCHAQVNAEKLKQDGIGACLLKPLTPTRLLPALTEFCHHKQNTLLPVTDESKLAMTVMAVDDNPANLKLIGALLEDMVQHVELCDSGHQAVERAKQMPFDLILMDIQMPDMDGIRACELIHQLPHQQQTPVIAVTAHAMAGQKEKLLGAGMSDYLAKPIEEERLHNLLLRYKPGSGISSRVVTPEVNEIVVNPNATLDWQLALRQAAGKTDLARDMLQMLLDFLPEVRNKVEEQLVGENPEGLVDLIHKLHGSCGYSGVPRMKNLCQLIEQQLRSGTKEEDLEPELLELLDEMDNVAREASKILG [P0AEC5]”, the “total protein half-life in vivo” value under setting [1] worked out at 6.36 ± 0.23 h; the “total protein half-life in vivo” value under setting [2] worked out at 5.96 ± 0.43 h; the “total protein half-life in vivo” value under setting [3] stood at 6.35 ± 0.93 h; the “total protein half-life in vivo” value under setting [4] was determined as 6.05 ± 1.2 h; the “total protein half-life in vivo” value under setting [5] is 5.8 ± 0.066 h; the “total protein half-life in vivo” value under setting [6] worked out at 3.45 ± 0.058 h. Further, the “total protein half-life in vivo” value by setting is: under setting [7], 5.985 ± 0.046 h; under setting [8], 10.5 ± 1.6 h; under setting [10], 13.1 ± 0.83 h; under setting [11], 6.32 ± 0.066 h; under setting [12], 11.4 ± 0.16 h.
For the sequence “MSKSRLTVFSFVRRFLLRLMVVLAVFWGGGIALFSVAPVPFSAVMVERQVSAWLHGNFRYVAHSDWVSMDQISPWMGLAVIAAEDQKFPEHWGFDVASIEKALAHNERNENRIRGASTISQQTAKNLFLWDGRSWVRKGLEAGLTLGIETVWSKKRILTVYLNIAEFGDGVFGVEAAAQRYFHKPASKLTRSEAALLAAVLPNPLRFKVSSPSGYVRSRQAWILRQMYQLGGEPFMQQHQLD”, the “total protein half-life in vivo” value runs as follows: under setting [1], 7.03 h; under setting [2], 6.44 ± 0.48 h; under setting [3], 6.04 ± 0.026 h; under setting [5], 5.87 ± 0.34 h; under setting [6], 3.16 h; under setting [8], 10.8 ± 1.2 h. Also, the “total protein half-life in vivo” value under setting [9] turned out to be 6.11 ± 0.23 h, the “total protein half-life in vivo” value under setting [10] was determined as 12.3 ± 1.5 h, the “total protein half-life in vivo” value under setting [11] is 6.23 ± 0.25 h and the “total protein half-life in vivo” value under setting [12] is 12.8 ± 0.19 h.
Take “MMILSILATVVLLGALFYHRVSLFISSLILLAWTAALGVAGLWSAWVLVPLAIILVPFNFAPMRKSMISAPVFRGFRKVMPPMSRTEKEAIDAGTTWWEGDLFQGKPDWKKLHNYPQPRLTAEEQAFLDGPVEEACRMANDFQITHELADLPPELWAYLKEHRFFAMIIKKEYGGLEFSAYAQSRVLQKLSGVSGILAITVGVPNSLGPGELLQHYGTDEQKDHYLPRLARGQEIPCFALTSPEAGSDAGAIPDTGIVCMGEWQGQQVLGMRLTWNKRYITLAPIATVLGLAFKLSDPEKLLGGAEDLGITCALIPTTTPGVEIGRRHFPLNVPFQNGPTRGKDVFVPIDYIIGGPKMAGQGWRMLVECLSVGRGITLPSNSTGGVKSVALATGAYAHIRRQFKISIGKMEGIEEPLARIAGNAYVMDAAASLITYGIMLGEKPAVLSAIVKYHCTHRGQQSIIDAMDITGGKGIMLGQSNFLARAYQGAPIAITVEGANILTRSMMIFGQGAIRCHPYVLEEMEAAKNNDVNAFDKLLFKHIGHVGSNKVRSFWLGLTRGLTSSTPTGDATKRYYQHLNRLSANLALLSDVSMAVLGGSLKRRERISARLGDILSQLYLASAVLKRYDDEGRNEADLPLVHWGVQDALYQAEQAMDDLLQNFPNRVVAGLLNVVIFPTGRHYLAPSDKLDHKVAKILQVPNATRSRIGRGQYLTPSEHNPVGLLEEALVDVIAADPIHQRICKELGKNLPFTRLDELAHNALVKGLIDKDEAAILVKAEESRLRSINVDDFDPEELATKPVKLPEKVRKVEAA”: the “total protein half-life in vivo” value under setting [1] stood at 6.66 ± 0.19 h; the “total protein half-life in vivo” value under setting [2] is 5.65 ± 0.067 h; the “total protein half-life in vivo” value under setting [3] turned out to be 2.2 ± 0.21 h; the “total protein half-life in vivo” value under setting [4] worked out at 2.48 ± 0.52 h; the “total protein half-life in vivo” value under setting [5] is 1.82 ± 0.079 h; the “total protein half-life in vivo” value under setting [6] amounted to 1.43 ± 0.11 h. Further, the “total protein half-life in vivo” value reads like this: under setting [7], 1.86 ± 0.12 h; under setting [8], 2.9 ± 0.51 h; under setting [9], 2.2 ± 0.1 h; under setting [10], 3.64 ± 0.49 h; under setting [11], 2.01 ± 0.24 h; under setting [12], 3.65 ± 0.59 h.
Regarding “MKKWSRHLLAAGALALGMSAAHADDNNTLYFYNWTEYVPPGLLEQFTKETGIKVIYSTYESNETMYAKLKTYKDGAYDLVVPSTYYVDKMRKEGMIQKIDKSKLTNFSNLDPDMLNKPFDPNNDYSIPYIWGATAIGVNGDAVDPKSVTSWADLWKPEYKGSLLLTDDAREVFQMALRKLGYSGNTTDPKEIEAAYNELKKLMPNVAAFNSDNPANPYMEGEVNLGMIWNGSAFVARQAGTPIDVVWPKEGGIFWMDSLAIPANAKNKEGALKLINFLLRPDVAKQVAETIGYPTPNLAARKLLSPEVANDKTLYPDAETIKNGEWQNDVGAASSIYEEYYQKLKAGR [P0AFK9]”, the “total protein half-life in vivo” value stood at 5.36 ± 0.48 h under setting [2]; 6.46 ± 0.61 h under setting [3]; 6.271 ± 0.061 h under setting [4]; 5.94 ± 0.35 h under setting [5]; 3.44 ± 0.58 h under setting [6]; 6.44 ± 0.57 h under setting [7]. The “total protein half-life in vivo” value is, setting by setting: under setting [8], 13.6 ± 0.72 h; under setting [9], 6.07 ± 0.22 h; under setting [10], 11.99 ± 0.032 h; under setting [11], 5.59 ± 0.35 h; under setting [12], 12.5 ± 0.19 h.
